Assay results: PMC3410853 (PLoS Pathogens, 2012)

T1: SA-Fc fusion protein (bivalent SA-Fc variant; TGEV S residues 481 to 650) (Transmissible gastroenteritis virus …, strain)
T1 construct: not shown: HA, N-terminal, kept; Fc (human IgG1), C-terminal, kept
T1 chain: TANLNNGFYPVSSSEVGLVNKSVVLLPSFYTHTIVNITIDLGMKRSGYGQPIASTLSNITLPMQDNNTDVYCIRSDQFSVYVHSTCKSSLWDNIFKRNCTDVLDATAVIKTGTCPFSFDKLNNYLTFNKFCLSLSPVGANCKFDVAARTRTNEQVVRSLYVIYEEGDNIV

B1: engineered soluble pAPN (ectodomain, residues 36 to 963) (domain or fragment)
chain: EKNKNAEHVPQAPTSPTITTTAAITLDQSKPWNRYRLPTTLLPDSYNVTLRPYLTPNADGLYIFKGKSIVRLLCQEPTDVIIIHSKKLNYTTQGHMVVLRGVGDSQVPEIDRTELVELTEYLVVHLKGSLQPGHMYEMESEFQGELADDLAGFYRSEYMEGNVKKVLATTQMQSTDARKSFPCFDEPAMKATFNITLIHPNNLTALSNMPPKGSSTPLAEDPNWSVTEFETTPVMSTYLLAYIVSEFQSVNETAQNGVLIRIWARPNAIAEGHGMYALNVTGPILNFFANHYNTSYPLPKSDQIALPDFNAGAMENWGLVTYRENALLFDPQSSSISNKERVVTVIAHELAHQWFGNLVTLAWWNDLWLNEGFASYVEYLGADHAEPTWNLKDLIVPGDVYRVMAVDALASSHPLTTPAEEVNTPAQISEMFDSISYSKGASVIRMLSNFLTEDLFKEGLASYLHAFAYQNTTYLDLWEHLQKAVDAQTSIRLPDTVRAIMDRWTLQMGFPVITVDTKTGNISQKHFLLDSESNVTRSSAFDYLWIVPISSIKNGVMQDHYWLRDVSQAQNDLFKTASDDWVLLNVNVTGYFQVNYDEDNWRMIQHQLQTNLSVIPVINRAQVIYDSFNLATAHMVPVTLALDNTLFLNGEKEYMPWQAALSSLSYFSLMFDRSEVYGPMKKYLRKQVEPLFQHFETLTKNWTERPENLMDQYSEINAISTACSNGLPQCENLAKTLFDQWMSDPENNPIHPNLRSTIYCNAIAQGGQDQWDFAWGQLQQAQLVNEADKLRSALACSNEVWLLNRYLGYTLNPDLIRKQDATSTINSIASNVIGQPLAWDFVQSNWKKLFQDYGGGSFSFSNLIQGVTRRFSSEFELQQLEQFKKNNMDVGFGSGTRALEQALEKTKANIKWVKENKEVVLNWFIEHS
B2: TGEV-neutralizing monoclonal antibody 1AF10 (site A, subsite Ac) (antibody, V domains shown)
VH: QVQLQQSGPELVKPGASVKISCKASGYAFSSSWMNWVKQRPGQGLEWIGRIYPGDGETNYSEKFKGKATLTADKSSSTAYMHLSSLTSVDSAVYFCARGGYRYDPYYAMDYWGQGTSVTVSS
VL: DILLTQSPAILSVSPGERVSLSCRASQSIGTSIHWYQQRTNGSPRPLIKYASESISGIPSRFSGSGSGTDFTLNINSVESEDIADYFCQQTDSWPTTFGAGTKLELK
notes: also called 1AF10 mAb; mAb 1AF10; source: hybridoma cells; purified mAb or hybridoma supernatant; copies: 2 + 2

How the values were obtained:
[1] = target: SA-Fc fusion protein (bivalent SA-Fc variant; TGEV S residues 481 to 650); assay: flow cytometry on cells (FACS, percentage of stained cells); conditions: transiently transfected 293T cells expressing similar amounts of HA-tagged pAPN proteins; parent: est. 100; read off a plot
[2] = target: porcine aminopeptidase N (pAPN) on the surface of BHK-pAPN cells (UniProt P15145); assay: as above; conditions: same concentration of wild type and mutant SA-Fc proteins, parent: est. 100, read off a plot
[3] = target: the molecule itself; assay: SEC; soluble pAPN ectodomain on Superdex 200 16/60, HEPES-saline buffer pH 7.5
[4] = target: T1, SA-Fc fusion protein (bivalent SA-Fc …); assay: ELISA

Molecule | percent of parent [1] [%] | percent of parent [2] [%] | other results
recombinant membrane bound pAPN with an HA tag at the C-terminal end (from UniProt P15145) T738V | 3 | – | –
recombinant membrane bound pAPN with an HA tag at the C-terminal end (from UniProt P15145) N736A | 3 | – | –
SA-Fc fusion protein (bivalent SA-Fc variant; TGEV S residues 481 to 650) N632A | – | 15 | –
SA-Fc fusion protein (bivalent SA-Fc variant; TGEV S residues 481 to 650) V617Ngly | – | 105 | –
B1 | – | – | stoichiometry N [3]: 2
B2 | – | – | binding result [4]: binds
